Tests used:
[1] = biological target: T1, EDIII-DV1 (E protein domain III of dengue virus serotype DV-1) (dengue virus serotype DV-1, UniProt P17763 573-680)
T1 construct: also called DENV-1; EDIII of DV-1
T1 chain: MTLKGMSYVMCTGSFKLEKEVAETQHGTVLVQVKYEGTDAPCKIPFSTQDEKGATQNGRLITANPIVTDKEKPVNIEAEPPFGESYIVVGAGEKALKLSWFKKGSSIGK

[2] = biological target: T2, Thailand/1997 (serotype IV EDIII); assay: SPR; row Thailand/1997, serotype IV, genotype III
T2 E protein domain III (EDIII): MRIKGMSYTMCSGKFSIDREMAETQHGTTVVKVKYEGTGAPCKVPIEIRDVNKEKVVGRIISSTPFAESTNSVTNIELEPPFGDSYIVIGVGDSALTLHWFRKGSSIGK

[3] = biological target: T3, Venezuela/2007 (serotype II EDIII); assay: SPR; row Venezuela/2007, serotype II, genotype SE-Asian/American
T3 construct: also called ED3-DV2/Venezuela07
T3 E protein domain III (EDIII): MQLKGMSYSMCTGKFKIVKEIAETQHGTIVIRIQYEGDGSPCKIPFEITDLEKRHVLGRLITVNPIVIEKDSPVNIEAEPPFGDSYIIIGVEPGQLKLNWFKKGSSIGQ

[4] = biological target: T4, Cambodia/2008 (serotype III EDIII); assay: ELISA; row Cambodia/2008, serotype III, genotype II
T4 construct: Genotype II; also called ED3-DV3/Cambodia08
T4 E protein domain III (EDIII): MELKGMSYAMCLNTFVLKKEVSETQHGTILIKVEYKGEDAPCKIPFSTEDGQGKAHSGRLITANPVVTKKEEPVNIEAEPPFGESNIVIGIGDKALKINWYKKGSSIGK

[5] = biological target: T5, EDIII-DV4 (E protein domain III of dengue virus serotype DV-4) (dengue virus serotype DV-4, UniProt P09866 572-679)
T5 construct: also called DENV-4

[6] = biological target: T6, New Guinea/1944 (NGC)* (serotype II EDIII) (Dengue virus 2); assay: SPR; row New Guinea/1944 (NGC)*, serotype II, genotype Asian I
T6 construct: isolated EDIII protein; also called EDIII of DENV-2 NGC

[7] = biological target: T7, Vietnam/2008 (serotype I EDIII)
T7 construct: also called ED3-DV1/Viet08
T7 E protein domain III (EDIII): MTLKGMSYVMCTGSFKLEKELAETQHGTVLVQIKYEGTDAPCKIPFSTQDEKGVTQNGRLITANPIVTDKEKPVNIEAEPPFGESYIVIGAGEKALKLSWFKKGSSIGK

T6 sequence (P14340 578-673): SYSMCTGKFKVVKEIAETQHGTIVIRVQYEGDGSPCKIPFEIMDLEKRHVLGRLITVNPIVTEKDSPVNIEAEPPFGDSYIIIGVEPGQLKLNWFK

B1: antibody D88 (antibody, V domains shown)
VH: QVQLVQSGAEVKKPGASVKVSCKAGFNIKDVYMSWVRQAPEQGLEWMGRIDPENGDTKYDPKLQGRVTMTADTSTNTAYMELRSLRSDDTAVYYCARGWEGFAYWGQGTLVTVSS
VL: DIVMTQSPASLAVSLGERATISCRASENVDKYGNSFMHWYQQKPGQPPKLLIYRASELQWGVPDRFSGSGSGTDFTLTISSLQAEDVAVYYCQRSNEVPWTFGQGTKLEIK
notes: also called mAb D88
Kd [1]: 0.041 nM
Kd [2]: > 300 nM
Kd [3]: 0.029 nM
Kd [4]: 1.32 nM
Kd [5]: 3.8 nM
Kd [6]: 0.016 nM
Kd [7]: 0.031 nM
